{"source": "paper PMC8528823", "about": "(2021)", "binders": {"B1": {"name": "Mouse Fc (mFc) tagged mink ACE2 (Fc fusion)", "chain": "QSTTEDLAKTFLEKFNYEAEELSYQNSLASWNYNTNITDENIQKMNIAGAKWSAFYEEESQHAKTYPLEEIQDPIIKRQLRALQQSGSSVLSADKRERLNTILNAMSTIYSTGKACNPNNPQECLLLEPGLDDIMENSKDYNERLWAWEGWRSEVGKQLRPLYEEYVALKNEMARANNYEDYGDYWRGDYEEEWADGYNYSRNQLIEDVEHTFTQIKPLYEHLHAYVRAKLMDAYPSRISPTGCLPAHLLGDMWGRFWTNLYPLMVPFGQKPNIDVTDAMVNQSWDARRIFKEAEKFFVSVGLPNMTEGFWQNSMLTEPGDNRKVVCHPTAWDLGKHDFRIKMCTKVTMDDFLTAHHEMGHIQYDMAYAAQPFLLRNGANEGFHEAVGEIMSLSAATPNHLKNIGLLPPDFSEDSETDINFLLKQALTIVGTLPFTYMLEKWRWMVFKGEIPKEQWMQKWWEMKRDIVGVVEPLPHDETYCDPAALFHVANDYSFIRYYTRTIYQFQFQEALCQIAKHEGPLYKCDISNSREAGQKLHEMLSLGRSKPWTFALERVVGAKTMDVRPLLNYFEPLFTWLKEQNRNSFVGWNTDWSPYADQSIKVRISLKSALGEKAYEWNDNEMYFFQSSIAYAMREYFSKVKKQTIPFVDKDVRVSDLKPRISFNFIVTSPENMSDIIPRADVEEAIRKSRGRINDAFRLDDNSLEFLGIQPTLEPPYQPPVT"}}, "target": "SARS-CoV-2 WT RBD (SARS-CoV-2, UniProt P0DTC2 319-541)", "experiment": "SPR", "data": [{"binder": "B1", "values": [{"measurement": "koff", "result": 1.65, "unit": "s⁻¹"}]}]}
